Data published in US20240117018A1.

Assays:
Assay in all cases: cell-based or functional assay
[1] = target: HIV-1 Env of pseudovirus 191955_A11 (HIV-1)
[2] = target: HIV-1 Env of pseudovirus 235-47 (HIV-1)
[3] = target: HIV-1 Env of pseudovirus 3817.v2.c59 (HIV-1)
[4] = target: HIV-1 Env of pseudovirus 62357_14_D3_4589 (HIV-1)
[5] = target: HIV-1 Env of pseudovirus 6244_13_B5_4576 (HIV-1)
[6] = target: HIV-1 Env of pseudovirus 6480.v4.c25 (HIV-1)
[7] = target: HIV-1 Env of pseudovirus 6535.3 (HIV-1)
[8] = target: HIV-1 Env of pseudovirus 6811.v7.c18 (HIV-1)
[9] = target: HIV-1 Env of pseudovirus 928-28 (HIV-1)
[10] = target: HIV-1 Env of pseudovirus AC10.0.29 (HIV-1)
[11] = target: HIV-1 Env of pseudovirus BJOX015000.11.5 (HIV-1)
[12] = target: HIV-1 Env of pseudovirus CAAN5342.A2 (HIV-1)
[13] = target: HIV-1 Env of pseudovirus CAP45.2.00.G3 (HIV-1)
[14] = target: HIV-1 Env of pseudovirus CNE17 (HIV-1)
[15] = target: HIV-1 Env of pseudovirus CNE19 (HIV-1)
[16] = target: HIV-1 Env of pseudovirus CNE20 (HIV-1)
[17] = target: HIV-1 Env of pseudovirus CNE30 (HIV-1)
[18] = target: HIV-1 Env of pseudovirus CNE52 (HIV-1)
[19] = target: HIV-1 Env of pseudovirus CNE53 (HIV-1)
[20] = target: HIV-1 Env of pseudovirus Ce1172_H1 (HIV-1)
[21] = target: HIV-1 Env of pseudovirus Ce2010_F5 (HIV-1)
[22] = target: HIV-1 Env of pseudovirus Ce2060_G9 (HIV-1)
[23] = target: HIV-1 Env of pseudovirus Du422.1 (HIV-1)
[24] = target: HIV-1 Env of pseudovirus MS208.A1 (HIV-1)
[25] = target: HIV-1 Env of pseudovirus PVO.4 (HIV-1)
[26] = target: HIV-1 Env of pseudovirus Q259.d2.17 (HIV-1)
[27] = target: HIV-1 Env of pseudovirus Q461.e2 (HIV-1)
[28] = target: HIV-1 Env of pseudovirus Q842.d12 (HIV-1)
[29] = target: HIV-1 Env of pseudovirus SC05_8C11_2344 (HIV-1)
[30] = target: HIV-1 Env of pseudovirus SC422661.8 (HIV-1)
[31] = target: HIV-1 Env of pseudovirus TRO.11 (HIV-1)
[32] = target: HIV-1 Env of pseudovirus WITO4160.33 (HIV-1)
[33] = target: HIV-1 Env of pseudovirus X1632_S2_B10 (HIV-1)
[34] = target: HIV-1 Env of pseudovirus ZM135M.PL10a (HIV-1)
[35] = target: HIV-1 Env of pseudovirus ZM197M.PB7 (HIV-1)
[36] = target: HIV-1 Env of pseudovirus ZM233M.PB6 (HIV-1)
[37] = target: HIV-1 Env of pseudovirus ZM247v1(Rev-) (HIV-1)
[38] = target: HIV-1 Env of pseudovirus ZM53M.PB12 (HIV-1)

Substance: PGDM1400 (antibody)
- neutralization IC50 [1]: 0.001 µg/mL
- neutralization IC80 [1]: 0.021 µg/mL
- IC50 (Titer in TZM.bl cells) [2]: 0.005 µg/mL
- IC80 (Titer in TZM.bl cells) [2]: 0.032 µg/mL
- IC50 (Titer in TZM.bl cells) [3]: > 50 µg/mL
- IC80 (Titer in TZM.bl cells) [3]: > 50 µg/mL
- neutralization IC50 [4]: > 50 µg/mL
- neutralization IC80 [4]: > 50 µg/mL
- neutralization IC50 [5]: > 50 µg/mL
- neutralization IC80 [5]: > 50 µg/mL
- IC50 (Titer in TZM.bl cells) [6]: > 50 µg/mL
- IC80 (Titer in TZM.bl cells) [6]: > 50 µg/mL
- neutralization IC50 [7]: > 50 µg/mL
- neutralization IC80 [7]: > 50 µg/mL
- IC50 (Titer in TZM.bl cells) [8]: > 50 µg/mL
- IC80 (Titer in TZM.bl cells) [8]: > 50 µg/mL
- neutralization IC50 [9]: 0.22 µg/mL
- neutralization IC80 [9]: 1.25 µg/mL
- neutralization IC50 [10]: 0.105 µg/mL
- neutralization IC80 [10]: 0.869 µg/mL
- IC50 (Titer in TZM.bl cells) [11]: 0.52 µg/mL
- IC80 (Titer in TZM.bl cells) [11]: 10.6 µg/mL
- neutralization IC50 [12]: > 50 µg/mL
- neutralization IC80 [12]: > 50 µg/mL
- neutralization IC50 [13]: < 0.001 µg/mL
- neutralization IC80 [13]: 0.002 µg/mL
- neutralization IC50 [14]: 0.007 µg/mL
- neutralization IC80 [14]: 0.021 µg/mL
- neutralization IC50 [15]: 0.001 µg/mL
- neutralization IC80 [15]: 0.007 µg/mL
- neutralization IC50 [16]: 0.004 µg/mL
- neutralization IC80 [16]: 0.014 µg/mL
- neutralization IC50 [17]: > 50 µg/mL
- neutralization IC80 [17]: > 50 µg/mL
- neutralization IC50 [18]: 1.15 µg/mL
- neutralization IC80 [18]: 9.97 µg/mL
- neutralization IC50 [19]: 0.077 µg/mL
- neutralization IC80 [19]: 0.246 µg/mL
- neutralization IC50 [20]: 0.021 µg/mL
- neutralization IC80 [20]: 0.06 µg/mL
- neutralization IC50 [21]: > 50 µg/mL
- neutralization IC80 [21]: > 50 µg/mL
- neutralization IC50 [22]: 0.001 µg/mL
- neutralization IC80 [22]: 0.007 µg/mL
- neutralization IC50 [23]: 0.694 µg/mL
- neutralization IC80 [23]: > 50 µg/mL
- neutralization IC50 [24]: < 0.001 µg/mL
- neutralization IC80 [24]: 0.139 µg/mL
- neutralization IC50 [25]: 0.484 µg/mL
- neutralization IC80 [25]: 6.49 µg/mL
- neutralization IC50 [26]: 0.166 µg/mL
- neutralization IC80 [26]: > 50 µg/mL
- neutralization IC50 [27]: 0.089 µg/mL
- neutralization IC80 [27]: 0.572 µg/mL
- neutralization IC50 [28]: < 0.001 µg/mL
- neutralization IC80 [28]: 0.002 µg/mL
- neutralization IC50 [29]: 1.26 µg/mL
- neutralization IC80 [29]: 3.59 µg/mL
- neutralization IC50 [30]: 0.436 µg/mL
- neutralization IC80 [30]: 6.53 µg/mL
- neutralization IC50 [31]: 0.283 µg/mL
- neutralization IC80 [31]: 1.38 µg/mL
- neutralization IC50 [32]: < 0.001 µg/mL
- neutralization IC80 [32]: 0.008 µg/mL
- IC50 (Titer in TZM.bl cells) [33]: 0.055 µg/mL
- IC80 (Titer in TZM.bl cells) [33]: 1.45 µg/mL
- neutralization IC50 [34]: > 50 µg/mL
- neutralization IC80 [34]: > 50 µg/mL
- neutralization IC50 [35]: 0.063 µg/mL
- neutralization IC80 [35]: 0.285 µg/mL
- neutralization IC50 [36]: < 0.001 µg/mL
- neutralization IC80 [36]: 0.001 µg/mL
- neutralization IC50 [37]: 0.019 µg/mL
- neutralization IC80 [37]: 0.051 µg/mL
- neutralization IC50 [38]: 0.002 µg/mL
- neutralization IC80 [38]: 0.011 µg/mL
